Measured values taken from US20200325209A1.

What was measured:
[1] = biological target: human neonatal Fc receptor FcRn/β2m, soluble recombinant (human) (UniProt P55899); experiment: flow cytometry, labelled FcRn on CHO-displayed HSA, pH 5.5
[2] = biological target: human neonatal Fc receptor FcRn/β2m, soluble recombinant (human) (UniProt P55899); experiment: flow cytometry, labelled FcRn on CHO-displayed HSA, pH 7.4

Chain of human neonatal Fc receptor FcRn/β2m, soluble recombinant (human) (P55899 24-297 limits assumed, chain 1 of 2): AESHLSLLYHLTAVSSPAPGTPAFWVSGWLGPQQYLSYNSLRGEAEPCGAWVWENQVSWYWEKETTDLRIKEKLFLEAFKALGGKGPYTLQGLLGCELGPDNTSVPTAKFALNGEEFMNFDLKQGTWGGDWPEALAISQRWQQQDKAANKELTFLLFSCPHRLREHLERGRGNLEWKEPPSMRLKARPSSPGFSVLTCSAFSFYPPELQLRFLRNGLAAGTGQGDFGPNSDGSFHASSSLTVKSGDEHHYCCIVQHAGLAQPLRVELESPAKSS
Chain of human neonatal Fc receptor FcRn/β2m, soluble recombinant (human) (P61769 21-119 limits assumed, chain 2 of 2, further chain): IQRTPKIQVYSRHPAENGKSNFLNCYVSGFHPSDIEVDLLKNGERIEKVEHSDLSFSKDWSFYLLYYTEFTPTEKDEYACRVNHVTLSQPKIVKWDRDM

**Q.** Which mean geoMFI [1] does the source give for “HSA [G572D], membrane-tethered on CHO cells (from UniProt P02768 25-609)” here?
**A.** Its mean geoMFI is 305.

**Q.** And the mean geoMFI [2]?
**A.** Its mean geoMFI is 32.7.

**Q.** Which mean geoMFI [1] does the source give for “HSA [G572N], membrane-tethered on CHO cells (from UniProt P02768 25-609)” here?
**A.** Its mean geoMFI is 85.8.

**Q.** What about the mean geoMFI [2] of the same substance?
**A.** The mean geoMFI was 36.4.

**Q.** For “HSA [G572P], membrane-tethered on CHO cells (from UniProt P02768 25-609)”, which mean geoMFI [1] is on record?
**A.** Its mean geoMFI is 216.

**Q.** What about the mean geoMFI [2] of the same substance?
**A.** Its mean geoMFI is 30.6.

**Q.** With “HSA [G572Q], membrane-tethered on CHO cells (from UniProt P02768 25-609)” as the substance, how does the mean geoMFI [1] read?
**A.** Its mean geoMFI is 201.

**Q.** Which mean geoMFI [1] does the source give for “HSA [G572V], membrane-tethered on CHO cells (from UniProt P02768 25-609)” here?
**A.** Its mean geoMFI is 58.2.

**Q.** What about the mean geoMFI [2] of the same substance?
**A.** Its mean geoMFI is 20.7.

**Q.** “HSA [Q522A], membrane-tethered on CHO cells (from UniProt P02768 25-609)” was tested. Which mean geoMFI [2] did it give?
**A.** The mean geoMFI was 17.8.

**Q.** For “HSA [Q522D], membrane-tethered on CHO cells (from UniProt P02768 25-609)”, which mean geoMFI [1] is on record?
**A.** Its mean geoMFI is 317.

**Q.** What about the mean geoMFI [2] of the same substance?
**A.** The mean geoMFI was 22.4.

**Q.** What does the source list for “HSA [Q522E], membrane-tethered on CHO cells (from UniProt P02768 25-609)”?
**A.** mean geoMFI [1]: 128; mean geoMFI [2]: 29.2

**Q.** Which mean geoMFI [2] does the source give for “HSA [Q522H], membrane-tethered on CHO cells (from UniProt P02768 25-609)” here?
**A.** Its mean geoMFI is 27.2.

**Q.** With “HSA [Q522N], membrane-tethered on CHO cells (from UniProt P02768 25-609)” as the substance, how does the mean geoMFI [2] read?
**A.** Its mean geoMFI is 31.4.

**Q.** For “HSA [Q522P], membrane-tethered on CHO cells (from UniProt P02768 25-609)”, which mean geoMFI [2] is on record?
**A.** Its mean geoMFI is 29.4.

**Q.** With “HSA [Q522R], membrane-tethered on CHO cells (from UniProt P02768 25-609)” as the substance, how does the mean geoMFI [1] read?
**A.** Its mean geoMFI is 386.

**Q.** And the mean geoMFI [2]?
**A.** The mean geoMFI was 17.8.

**Q.** With “HSA [Q522S], membrane-tethered on CHO cells (from UniProt P02768 25-609)” as the substance, how does the mean geoMFI [1] read?
**A.** Its mean geoMFI is 258.

**Q.** And the mean geoMFI [2]?
**A.** The mean geoMFI was 32.7.

**Q.** With “HSA [Q522T], membrane-tethered on CHO cells (from UniProt P02768 25-609)” as the substance, how does the mean geoMFI [1] read?
**A.** Its mean geoMFI is 290.

**Q.** And the mean geoMFI [2]?
**A.** Its mean geoMFI is 28.3.
